Test results taken from US20260151501A1, “ANTIBODY-DRUG CONJUGATE COMPRISING ANTI-CLAUDIN-18.2 ANTIBODY, AND THERAPEUTIC USE THEREOF FOR CANCER” (ABTIS CO., LTD., priority 2022, published 2026).

Assays:
[1] = target: claudin18.2 protein (CLDN18.2) on CLDN18.2-positive cancer cell lines (MIA PaCa-2~CLDN18.2, SNU601, PATU8988S, NUGC-4) (UniProt P56856); assay: cell-based ELISA (OD 450 nm), SNU601 (CLDN18.2+) cells; design: unit not given here
[2] = target: claudin18.2 protein (CLDN18.2) on CLDN18.2-positive cancer cell lines (MIA PaCa-2~CLDN18.2, SNU601, PATU8988S, NUGC-4) (UniProt P56856); assay: cell-based ELISA (OD 450 nm), PATU8988S (CLDN18.2+) cells
[3] = target: claudin18.2 protein (CLDN18.2) on CLDN18.2-positive cancer cell lines (MIA PaCa-2~CLDN18.2, SNU601, PATU8988S, NUGC-4) (UniProt P56856); assay: cell-based ELISA (OD 450 nm), MIA PaCa-2 (CLDN18.2+) cells
[4] = target: CLDN18.2~VLP (virus-like particle) expressing the claudin18.2 protein, CSB-MP005498HU (A5), CUSABIO (UniProt P56856); assay: indirect ELISA (OD 450 nm) on coated CLDN18.2 VLP, regression in GraphPad Prism
[5] = target: claudin18.2 protein (CLDN18.2) on CLDN18.2-positive cancer cell lines (MIA PaCa-2~CLDN18.2, SNU601, PATU8988S, NUGC-4) (UniProt P56856); assay: cell-based ELISA, PATU8988S (CLDN18.2+) cells; given as Kd, text calls it EC50
[6] = target: T1, claudin18.2 protein (CLDN18.2) (Homo sapiens, UniProt P56856); assay: Indirect ELISA binding to CLDN18.2 VLP; conditions: CLDN18.2 (antigen protein) VLP, OD at 450 nm
T1 construct: purchased CUSABIO TECHNOLOGY LLC CSB-MP005498HU (A5)
Experimental: (§1) OD value measurement through ELISA was performed by measuring the absorbance at 450 nm using a UV-Vis spectrometer.
To confirm the binding strength to an antigen, a CLDN18.2˜VLP (virus-like particle) expressing the claudin18.2 protein (CLDN18.2) was prepared. At this time, CLDN18.2˜VLP is CSB-MP005498HU (A5) from CUSABIO TECHNOLOGY LLC.
After a 96-well plate was coated with the CLDN18.2 VLP for ELISA and treated with each of antibody-A and ADC-A, indirect ELISA was performed to measure OD values.
The measured results were used for a regression analysis in GraphPad PRISM® 9.0 software to calculate EC50 and Bmax. The antigen binding affinity of antibody-A, ADC-A, antibody-B, and ADC-B were evaluated based on the calculated values.

[7] = tested on: MIA PaCa-2˜CLDN18.2 cell line; assay: Cell-based ELISA binding to MIA PaCa-2˜CLDN18.2 cells
Experimental: as §1
(§2) Four types of cell lines (MIA PaCa-2˜CLDN18.2, PATU8988S, parental MIA PaCa-2 (CLDN18.2-), and SNU601) were prepared. At this time, MIA PaCa-2˜CLDN18.2 and PATU8988S are CLDN18.2-positive pancreatic cancer cell lines. MIA PaCa-2 (CLDN18.2-) is a CLDN18.2-negative pancreatic cancer cell line. SNU601 is a CLDN18.2-positive gastric cancer cell line.
(§3) The prepared cell lines were cultured in DMEM containing 10% FBS and 1% penicillin/streptomycin (MIA PaCa-2˜CLDN18.2, MIA PaCa-2 (CLDN18.2-)), RPMI1640 containing 10% FBS and 1% penicillin/streptomycin (SNU601), and DMEM containing 5% FBS, 5% serum, 1% penicillin/streptomycin, and 2 mM L-glutamine (PATU8988S) in an incubator under the conditions of 37° C. and 5% CO2.
(§4) The prepared cell lines were plated on 96-well plates for culture, and then treated with each of antibody-A, ADC-A, antibody-B, and ADC-B. Thereafter, cell-based ELISA was performed, and OD values were measured.
(§5) The measured results were used for a regression analysis in GraphPad PRISM® 9.0 software to calculate EC50 and Bmax. The cell binding affinity of antibody-A, ADC-A, antibody-B, and ADC-B to each cell line was evaluated based on the calculated values.

[8] = tested on: SNU601 cell line; assay: Cell-based ELISA binding to SNU601 cells; conditions: SNU601 (CLDN18.2+)
Experimental: as §1, §2, §3, §4, §5

[9] = tested on: PATU8988S cell line; assay: Cell-based ELISA binding to PATU8988S cells; conditions: PATU8988S (CLDN18.2+)
Experimental: as §1, §2, §3, §4, §5

[10] = tested on: MIA PaCa-2 (CLDN18.2-) cell line; assay: Cell-based ELISA binding to MIA PaCa-2 (CLDN18.2-) cells; conditions: CLDN18.2 negative cell line
Experimental: as §1, §2, §3, §4, §5

[11] = target: claudin18.2 protein (CLDN18.2) on CLDN18.2-positive cancer cell lines (MIA PaCa-2~CLDN18.2, SNU601, PATU8988S, NUGC-4) (UniProt P56856); assay: cell-based or functional assay
[12] = target: claudin18.2 protein (CLDN18.2) on CLDN18.2-positive cancer cell lines (MIA PaCa-2~CLDN18.2, SNU601, PATU8988S, NUGC-4) (UniProt P56856); assay: cell-based ELISA, MIA PaCa-2 (CLDN18.2+) cells; given as Kd, text calls it EC50

Sequence of ADC-B (antibody-B conjugated with MMAE) (VH): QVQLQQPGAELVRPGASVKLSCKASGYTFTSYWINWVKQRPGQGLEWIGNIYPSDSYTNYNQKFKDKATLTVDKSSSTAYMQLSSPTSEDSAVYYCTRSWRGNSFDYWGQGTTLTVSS
Sequence of ADC-B (antibody-B conjugated with MMAE) (VL): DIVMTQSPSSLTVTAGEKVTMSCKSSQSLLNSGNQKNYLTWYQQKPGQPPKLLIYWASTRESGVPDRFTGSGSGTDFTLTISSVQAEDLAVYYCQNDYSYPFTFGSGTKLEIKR
Sequence of Antibody-B (zolbetuximab antibody) (VH): as the sequence (VH) above
Sequence of Antibody-B (zolbetuximab antibody) (VL): as the sequence (VL) above

Substance | Bmax [1] | Bmax [2] | Bmax [3] | Bmax [4] | Kd [5] | Bmax [6] | Bmax [7] | Bmax [8] | Bmax [9] | binding to parental MIA PaCa-2 [10] | IC50 (nM), cell viability (CellTiter-Glo), MIA PaCa-2 (CLDN18.2+) [11] | IC50 (nM), cell viability (CellTiter-Glo), NUGC4 (CLDN18.2+) [11] | IC50 (nM), cell viability (CellTiter-Glo), PATU8988S (CLDN18.2+) [11] | IC50 (nM), cell viability (CellTiter-Glo), SNU601 (CLDN18.2+) [11] | Kd [12]
Antibody-B (zolbetuximab antibody) | 1.7 | 1.21 | 3.05 | 2.13 | 12.5 nM |  |  |  |  |  |  |  |  |  | 
zolbetuximab [Antibody-B, reference compound] |  |  |  |  |  | 2.134 | 3.053 | 1.701 | 1.214 | none of the test substances bound |  |  |  |  | 
ADC-B (antibody-B conjugated with MMAE) | 2.8 | 2.33 | 3.33 | 2.87 | 10.5 nM |  |  |  |  |  | 2.12 nM | 20 nM | 7.19 nM | 10.4 nM | 0.065 µg/mL
